Source: patent US5876691A, “Antibody against carcionembryonic antigen (CEA)” (Cancer Research Campaign Technology Limited, priority 1993, dated 1999)

Legend:
[1] = biological target: T1, CEA (Homo sapiens, UniProt P06731); test: Dissociation constant (Kd) by fluorescence quench; settings: binding to CEA
T1 sequence (P06731 35-702): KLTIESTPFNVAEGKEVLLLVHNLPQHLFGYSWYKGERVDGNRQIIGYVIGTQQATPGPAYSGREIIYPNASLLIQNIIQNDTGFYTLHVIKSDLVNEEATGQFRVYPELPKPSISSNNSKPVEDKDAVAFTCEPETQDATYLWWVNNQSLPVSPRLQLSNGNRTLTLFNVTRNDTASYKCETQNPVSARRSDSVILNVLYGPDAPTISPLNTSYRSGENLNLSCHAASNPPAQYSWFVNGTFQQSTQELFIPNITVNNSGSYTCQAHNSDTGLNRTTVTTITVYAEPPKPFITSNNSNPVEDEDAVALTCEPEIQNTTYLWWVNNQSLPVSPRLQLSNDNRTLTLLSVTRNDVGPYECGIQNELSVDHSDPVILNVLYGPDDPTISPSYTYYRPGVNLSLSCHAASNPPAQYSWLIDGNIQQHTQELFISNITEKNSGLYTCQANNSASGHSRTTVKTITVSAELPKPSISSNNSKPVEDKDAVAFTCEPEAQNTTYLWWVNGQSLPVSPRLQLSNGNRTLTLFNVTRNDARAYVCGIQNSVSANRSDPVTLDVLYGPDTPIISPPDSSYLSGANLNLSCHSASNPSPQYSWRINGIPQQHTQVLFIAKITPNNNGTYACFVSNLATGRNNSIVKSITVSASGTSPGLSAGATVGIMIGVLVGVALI
Source text: (§1) MFE-23 was subcloned for expression as a soluble scFv linked to a C-terminal myc tag to aid identification during protein purification. […] The specificity against a range of normal human tissues was examined and the only reactivity was weak and with normal large bowel--this is in contrast to many anti-CEA monoclonal antibodies which commonly show cross reaction with a variety of normal tissues^7.

[2] = tested on: human colorectal adenocarcinomas; test: Immunohistochemistry with purified scFv on colorectal adenocarcinomas; assay type: binding; settings: second antibody against myc tag, positive/tested tumours
Source text: as §1

[3] = tested on: normal human tissues; test: Immunohistochemistry specificity against normal human tissues; assay type: binding
Source text: as §1

[4] = tested on: LS174T human colorectal tumour xenografts; test: Tumour localisation in vivo, Example 1; design: species or system nude mice; settings: 125 Iodine labelled, FIG. 2, 29 and 35 hours after injection
Source text: Tumour localisation in vivo was studied using LS174T human colorectal tumour xenografts in nude mice.

[5] = Isoelectric focusing (pI of scFvs); assay type: physicochemical; settings: Amphaline PAG plate pH 3.5-9.5
Source text: The isoelectric focusing points of the scFvs were obtained using an Amphaline PAG plate pH 3.5-9.5 (Pharmacia) in accordance with manufacturers instructions.

[6] = Stability of radiolabelled product by gel filtration on S-100 / SDS PAGE; assay type: physicochemical
[7] = biological target: T1, CEA; test: CEA binding of radiolabelled product on CEA/Sepharose column; settings: for counts in bound fraction of CEA column, % of total counts recovered / counts in unbound fraction of CEA column, % of total counts recovered: 125I radiolabelled, Example 5
Experimental: 75 μg of A5-SC and MFE-23 were iodinated with 0.5 mCi of 125-I using the Chloramine T/L-Tyrosine method^20. […] The stability of the radiolabelled products was tested by gel filtration on S-100.
MFE-cys was radiolabelled with ^99m Tc using a ^99m Tc-D-glucarate transfer method^22. 1 ml of ^99m Tc sodium pertechnetate (40.5 mCi) was added to 12.5 mg of monopotassium D-glucarate, 16.8 mg of sodium bicarbonate and 100 μg of stannous chloride (stannous chloride was made up directly before use at a concentration of 0.2 mg/ml). This solution was left for 1 min at room temperature. Then 0.5 ml was mixed with 200 μg MFE-cys in PBS/1 mM EDTA. The mixture was incubated at room temperature for 30 min and then applied to a PD 10 column (Pharmacia; primed with 3% human serum albumin in PBS) to separate the radiolabelled protein from the free pertechnetate. The efficiency of ^99m Tc uptake was tested by thin layer chromatography, using acetonitrile/water (30:20) as running solvent. An aliquot (100 μl) of diluted radiolabelled scFv (1:30 in PBS/Tween 20) was applied to a 1 ml CEA-sepharose column, containing 1 mg of CEA, to test CEA-binding. The column was washed with 8 volumes of PBS/0.05% Tween 20 and bound material was obtained by adding 3M ammoniumthiocyanate. Further, the stability of the labelled scFv was tested by applying the product (diluted 1:30) to Sephacryl S-100. To test the stability of the radiolabelled product in vivo serum taken from mice injected with the labelled scFv 24 h after administration was also applied to Sephacryl S-100. Stability of the ^99m Tc-labelled product was also tested by gel autoradiography as follows: radiolabelled MFE-cys was subjected to SDS-PAGE using a 15% non-reducing acrylamide gel. The protein was then Western blotted onto Immobilon P (Millipore), and visualised by autoradiography using Kodak X-Omatic cassette and Hyperfilm-MP film (Amersham).
Thin layer chromatography (TLC) was performed to measure % ^125 I incorporation. Antigen binding was also assessed by applying a dilution of the radiolabel to a CEA coupled Sepharose 4B (1 mg CEA; 1 ml column volume). The unbound fraction was washed through with 2 column volumes of PBS and the bound fraction with the same volume of 3M ammonium thiocyanate. A control scFv B1.8 which is not specific for CEA and MFE-23 containing a c-myc tag (MFE-23 myc) were tested as a comparison. The unbound and bound fractions were analysed for ^125 I activity using a gamma counter. Stability assessments were carried out by applying a sample of the radiolabel and unlabelled product to a 15% SDS PAGE minigel. The ^125 I-MFE-23 His was visualised by autoradiography and the unlabelled product by Coomassie blue staining. ^125 I-MFE-23 His was also applied to a 100 ml Sephacryl S-100 column (115×1 cm). 1.5 ml fractions were collected and counted for ^125 I activity.

[8] = tested on: LS174T human colorectal carcinoma xenograft; test: Xenograft biodistribution study, Example 2; assay type: in vivo, nude mice; settings: for percent injected activity per gram of tissue, tumour: 125-I labelled, i.v. tail vein
Experimental: Radiolabelled antibody was administered via the tail vein of nude mice bearing the LS174T human colorectal carcinoma xenograft^21. Each mouse received 4.3 μg/30.12 μCi of A5-SC or 4.3 μg/7.73 μCi of MFE-23. Mice were sacrificed at 24 h and 48 h, and tissues were removed and assessed for activity using a gamma counter. 4 mice were used for each time point.

[9] = Storage stability by FPLC (Superose 12); assay type: physicochemical; settings: 4° C. and -70° C. up to 6 months
Experimental: (§2) Samples at each purification stage were analysed for endotoxin levels using Limulus ameobocyte lysate (LAL) gel clot vials (Atlas bioscan. Bognor Regis, UK) according to the manufacturers' recommended instructions; a further aliquot (three times the patient dose) was tested by injection into rabbits (Safepharm Laboratories; Derby, UK) Bacterial supernatant containing MFE-23 His, semipurified MFE-23 His and the final product were tested for the presence of bacterial DNA using the Digoxigenin (DIG) DNA labelling and detection assay (Boeringer Mannheim, Lewes, UK). A probe was constructed using a mixture of equal proportions of MFE-23 plasmid DNA and total bacterial DNA. DIG labelled DNA probes were detected after hybridisation. to target samples by enzyme-linked immunoassay using an anti-DIG alkaline phosphatase conjugate. The probe was sensitive to 12 pg of DNA. […] Stability of the antibody was assessed by storing aliquots at 4° C. and -70° C. and subsequently analysing samples at certain time intervals using a Superose 12 HR 10/30 (Pharmacia) FPLC column. Retention of antigen binding following 6 months storage at 4° C. was measured by applying a known amount of purified antibody to the CEA affinity column (refer to section 2.7) and quantitating the % bound (specific activity). […]

[10] = Pyrogen test by injection into rabbits; assay type: in vivo; settings: final product, three times the patient dose
Experimental: as §2

[11] = biological target: T1, CEA; test: Retention of antigen binding on storage (CEA affinity column, specific activity); design: CEA was obtained from a patient's colorectal tumour liver metastasis by extraction using perchloric acid; from tissue; host or cells: patient's colorectal tumour liver metastasis, perchloric acid extract
Experimental: 2 liters of MFE-23 His which had been concentrated and dialysed in PBS (400 ml) was purified using a 6 ml cyanogen bromide activated Sepharose 4B (Pharmacia Biotech.) affinity column coupled to CEA (8 mg). CEA was obtained from a patient's colorectal tumour liver metastasis by extraction using perchloric acid^34. One column pass of 30 ml supernatant per run was performed.
Samples at each purification stage were analysed for endotoxin levels using Limulus ameobocyte lysate (LAL) gel clot vials (Atlas bioscan. Bognor Regis, UK) according to the manufacturers' recommended instructions; a further aliquot (three times the patient dose) was tested by injection into rabbits (Safepharm Laboratories; Derby, UK) Bacterial supernatant containing MFE-23 His, semipurified MFE-23 His and the final product were tested for the presence of bacterial DNA using the Digoxigenin (DIG) DNA labelling and detection assay (Boeringer Mannheim, Lewes, UK). A probe was constructed using a mixture of equal proportions of MFE-23 plasmid DNA and total bacterial DNA. DIG labelled DNA probes were detected after hybridisation. to target samples by enzyme-linked immunoassay using an anti-DIG alkaline phosphatase conjugate. The probe was sensitive to 12 pg of DNA. The final product was also assayed for Cu^2+ content and compared with earlier purification stages, using flame photometry (Trace Element laboratory-University of Surrey). An aliquot was also protein sequenced using amino acid analysis by the CRC protein sequencing facility (University college of London) to confirm homogeneity of the final product and cleavage of the pelB leader sequence in the periplasm. Stability of the antibody was assessed by storing aliquots at 4° C. and -70° C. and subsequently analysing samples at certain time intervals using a Superose 12 HR 10/30 (Pharmacia) FPLC column. Retention of antigen binding following 6 months storage at 4° C. was measured by applying a known amount of purified antibody to the CEA affinity column (refer to section 2.7) and quantitating the % bound (specific activity). These values were compared by applying a known amount of MFE-23 His previously purified using the same column.

B1: MFE-23: anti-CEA single chain Fv selected from a bacteriophage library, sequence of FIG. 3 (SEQ ID No. 2) (protein)
scFv: ETVIMKYLLPTAAAGLLLLAAQPAMAQVKLQQSGAELVRSGTSVKLSCTASGFNIKDSYMHWLRQGPEQGLEWIGWIDPENGDTEYAPKFQGKATFTTDTSSNTAYLQLSSLTSEDTAVYYCNEGTPTGPYYFDYWGQGTTVTVSSGGGGSGGGGSGGGGSENVLTQSPAIMSASPGEKVTITCSASSSVSYMHWFQQKPGTSPKLWIYSTSNLASGVPARFSGSGSGTSYSLTISRMEAEDAATYYCQQRSSYPLTFGAGTKLELKRAA
Kd [1]: 2.5 ± 1.3 nM | typical CEA-reactive pattern in human colorectal adenocarcinomas [2]: 10/10 | binding to normal tissues ([3]; liver, kidney, large intestine, tonsil, lung, brain, testis, ovary, cervix, breast, blood films, placenta, spleen, thyroid, oesophagus, stomach, pancreas, lymph node, skeletal muscle): did not bind | reactivity with normal large bowel ([3]; only reactivity seen in range of normal human tissues): weak | tumour imaging (gamma camera) [4]: only tumours are visible | pI [5]: 4.5-5.5 | stability after iodination, S-100 elution profile ([6]; 125-I labelled, gel filtration on S-100): one peak | percent of counts recovered on binding to CEA/Sepharose ([7]; 125-I radiolabelled products, Example 2): 38.7% | counts in bound fraction of CEA column, % of total counts recovered [7]: 56% | counts in unbound fraction of CEA column, % of total counts recovered [7]: 43% | percent injected activity per gram of tissue, tumour ([8]; 24 hours): 3.2% | percent injected activity per gram of tissue, tumour ([8]; 48 hours): 1.2% | localisation in liver and spleen ([8]; in contrast with A5-SC): did not show localisation

B2: MFE-23 His: MFE-23 scFv with hexa-histidine tail at the C-terminus, clinical grade (protein)
scFv: QVKLQQSGAELVRSGTSVKLSCTASGFNIKDSYMHWLRQGPEQGLEWIGWIDPENGDTEYAPKFQGKATFTTDTSSNTAYLQLSSLTSEDTAVYYCNEGTPTGPYYFDYWGQGTTVTVSSGGGGSGGGGSGGGGSENVLTQSPAIMSASPGEKVTITCSASSSVSYMHWFQQKPGTSPKLWIYSTSNLASGVPARFSGSGSGTSYSLTISRMEAEDAATYYCQQRSSYPLTFGAGTKLELK
stability of radiolabelled product ([6]; 125I label, SDS PAGE and gel filtration): monomeric, intact and unaggregated | counts in bound fraction of CEA column, % of total counts recovered [7]: 75% | counts in unbound fraction of CEA column, % of total counts recovered [7]: 25% | further counts recovered in bound fraction on reapplying the unbound fraction ([7]; % of total counts loaded, unbound fraction reapplied to CEA column): 58% | antigen binding retained after radiolabelling ([7]; after radiolabelling (125I)): > 75% | stability on storage, FPLC analysis [9]: no evidence of aggregation | pyrogenicity by in vivo rabbit testing [10]: non pyrogenic | antigen binding retained after storage ([11]; 6 months storage at 4° C.): 84% | Specific activity (% bound to CEA column) ([11]; CEA antigen affinity chromatography purified (d), 1 mg applied to column): 89% | Specific activity (% bound to CEA column) ([11]; IMAC purified (a), 2 mg applied to column, 6 months storage at 4° C.): 69% | Specific activity (% bound to CEA column) ([11]; IMAC purified (b), 1 mg applied to column, 6 months storage at 4° C.): 75% | Specific activity (% bound to CEA column) ([11]; IMAC purified (c), 0.5 mg applied to column, 6 months storage at 4° C.): 81% | mean % bound specific activity ([11]; IMAC purified material (a-c)): 75%
